Data: US20240084027A1 (BEIJING MABWORKS, published 2024)
Read-outs that look alike come from different tables or passages of the source.

T1: mouse CD40 on HEK293A cells (mouse, UniProt P27512 20-289)
T1 sequence: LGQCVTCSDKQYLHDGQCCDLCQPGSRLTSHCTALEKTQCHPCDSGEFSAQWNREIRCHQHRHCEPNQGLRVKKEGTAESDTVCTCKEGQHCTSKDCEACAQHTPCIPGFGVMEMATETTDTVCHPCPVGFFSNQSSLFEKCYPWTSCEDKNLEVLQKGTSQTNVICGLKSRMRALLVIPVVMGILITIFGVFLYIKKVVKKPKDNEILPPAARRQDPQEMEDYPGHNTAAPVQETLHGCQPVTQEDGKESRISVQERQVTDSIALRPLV

T2: monkey CD40 on HEK293A/monkey CD40 cells (monkey, UniProt P25942 21-277 (human entry))
T2 chain: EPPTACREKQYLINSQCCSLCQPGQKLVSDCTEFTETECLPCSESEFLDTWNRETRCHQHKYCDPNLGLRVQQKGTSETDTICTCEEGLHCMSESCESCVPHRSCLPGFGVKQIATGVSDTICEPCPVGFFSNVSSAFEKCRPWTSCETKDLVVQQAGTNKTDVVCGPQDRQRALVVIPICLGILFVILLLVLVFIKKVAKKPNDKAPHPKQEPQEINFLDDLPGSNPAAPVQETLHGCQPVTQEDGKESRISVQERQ

B1: MBS307-3 (bispecific antibody, human IgG1, kappa, L234A L235A)
heavy: QVQLQESGPGLVKPSDTLSLTCAVSGYSITTNYYWNWIRQPPGKGLEWMGYIKYDGSNNYNPSLKNRITISVDTSKNQFSLKLSSVTAVDTAVYYCARLDYWGQGTLVTVSSASTKGPSVFPLAPSSKSTSGGTAALGCLVKDYFPEPVTVSWNSGALTSGVHTFPAVLQSSGLYSLSSVVTVPSSSLGTQTYICNVNHKPSNTKVDKKVEPKSCDKTHTCPPCPAPEAAGGPSVFLFPPKPKDTLMISRTPEVTCVVVDVSHEDPEVKFNWYVDGVEVHNAKTKPREEQYNSTYRVVSVLTVLHQDWLNGKEYKCKVSNKALGAPIEKTISKAKGQPREPQVYTLPPSREEMTKNQVSLTCLVKGFYPSDIAVEWESNGQPENNYKTTPPVLDSDGSFFLYSKLTVDKSRWQQGNVFSCSVMHEALHNHYTQKSLSLSPGSGGGGSGGGGSQVQLQESGPGLVKPSQTLSLTCTVSGGSITSDYWNWIRQHPGNKLEYMGYISYTGSTYYNPSLKSRISITRDTSKNQFSLKLSSVTTADTAVYYCARYRDWDVRAMDYWGQGTTVTVSSGGGGSGGGGSGGGGSGGGGSDIVMTQSPDSLAVSLGEKVTMNCKSSQSLLISGNQKNFLTWYQQKPGQPPKLLIYWASTRESGVPDRFSGSGSGTDFTLTISSLQAEDEAVYYCQNDFGFPFTFGQGTKLTAK
light: DVVLTQSPLSLPVTLGQPASISCRSSQSLENSNGNTFLNWFQQRPGQSPRLLIYKVSNRFSGVPDRFSGSGSGTDFTLKISRVEAEDVGVYYCLQVTHVPFTFGQGTKLEIKRTVAAPSVFIFPPSDEQLKSGTASVVCLLNNFYPREAKVQWKVDNALQSGNSQESVTEQDSKDSTYSLSSTLTLSKADYEKHKVYACEVTHQGLSSPVTKSFNRGEC
notes: Symmetric: full-length anti-CD40 antibody with an anti-PD-L1 scFv (56E5VH5VL4) at the C terminus of each heavy chain
B2: MBS307-11 (bispecific antibody, human IgG1, kappa, L234A L235A)
heavy 1: QVQLQESGPGLVKPSDTLSLTCAVSGYSITTNYYWNWIRQPPGKGLEWMGYIKYDGSNNYNPSLKNRITISVDTSKNQFSLKLSSVTAVDTAVYYCARLDYWGQGTLVTVSSASTKGPSVFPLAPSSKSTSGGTAALGCLVKDYFPEPVTVSWNSGALTSGVHTFPAVLQSSGLYSLSSVVTVPSSSLGTQTYICNVNHKPSNTKVDKKVEPKSCDKTHTCPPCPAPEAAGGPSVFLFPPKPKDTLMISRTPEVTCVVVDVSHEDPEVKFNWYVDGVEVHNAKTKPREEQYNSTYRVVSVLTVLHQDWLNGKEYKCKVSNKALPAPIEKTISKAKGQPREPQVYTLPPSREEMTKNQVSLWCLVKGFYPSDIAVEWESNGQPENNYKTTPPVLDSDGSFFLYSKLTVDKSRWQQGNVFSCSVMHEALHNHYTQKSLSLSPGGGGGQVQLLESGGGLVQPGGSLRLSCAASGFAFSDYAMTWVRQAPGKGLEWVSTINSGGQSSSYLDSVKGRFTSSRDNSKNTLYLQMNSLRAEDTAVYYCAKGVYMPWKAPKGQGTLVTVSS
heavy 2: QVQLQESGPGLVKPSDTLSLTCAVSGYSITTNYYWNWIRQPPGKGLEWMGYIKYDGSNNYNPSLKNRITISVDTSKNQFSLKLSSVTAVDTAVYYCARLDYWGQGTLVTVSSASTKGPSVFPLAPSSKSTSGGTAALGCLVKDYFPEPVTVSWNSGALTSGVHTFPAVLQSSGLYSLSSVVTVPSSSLGTQTYICNVNHKPSNTKVDKKVEPKSCDKTHTCPPCPAPEAAGGPSVFLFPPKPKDTLMISRTPEVTCVVVDVSHEDPEVKFNWYVDGVEVHNAKTKPREEQYNSTYRVVSVLTVLHQDWLNGKEYKCKVSNKALPAPIEKTISKAKGQPREPQVYTLPPSREEMTKNQVSLSCAVKGFYPSDIAVEWESNGQPENNYKTTPPVLDSDGSFFLVSKLTVDKSRWQQGNVFSCSVMHEALHNHYTQKSLSLSPGGGGGQVQLVQSGAEVKKPGASVKVSCKASGYTFTDYHVNWVRQAPGQGLEWIGWIFPGSGRTFYTDKFKGRVTMTVDTSTSTVYMELSSLRSEDTAVYYCATDYGTSGYGLVYWGQGTTVTVSSGGGGSGGGGSGGGGSGGGGSDIQMTQSPSSLSASVGDRVTITCKASDRINNWLAWYQQKPGKAPKLLISGATSLETGVPSRFSGSGSGTDFTLTISSLQPEDEATYYCQQYWNIPFTFGQGTKLTAK
light: B1 light
notes: Asymmetric: knob chain with the anti-PD-L1 nanobody, hole chain with the 3C2VH6VL5 scFv; also called MBS307-11-1 + MBS307-11-2

Experiments:
[1] = target: T3, human CD40 on HEK293A/human CD40 cells (human, UniProt P25942 21-277); test: cell-based or functional assay
[2] = target: T1, mouse CD40 on HEK293A cells; test: FACS on HEK293A cells expressing mouse CD40
Protocol: (§1) The bispecific antibodies as prepared above were tested for their binding capability to cell surface human, monkey and mouse CD40 proteins by FACS, using the HEK293A cells prepared in Example 1 that stably expressed human, monkey or mouse CD40. Briefly, a 96-well plate was seeded with 10⁵ HEK293A cells in 50 μl PBS, and then added with 100 μl serially diluted anti-CD40 antibody 714VH2VL2 and the bispecific antibodies of the disclosure (starting concentration at 40 μg/ml). After incubation at 4° C. for 1 h, the plate was washed by PBST for 3 times. The plate was added with 1:500 diluted APC-goat anti-mouse IgG (Cat #:405308, BioLegen, USA), incubated at 4° for 1 h, washed with PBS for 3 times, and subjected to fluorescence measurement in a FACS machine (BD).

[3] = target: T3, human CD40 on HEK293A/human CD40 cells; test: FACS on HEK293A/human CD40 cells
Procedure, shortened: (§2)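 Binding to HEK293A cells stably expressing human, monkey or mouse CD40, 10⁵ cells per well. Serially diluted antibodies (from 40 μg/ml) incubated 1 h at 4 °C. Detection with APC anti-mouse IgG, 1 h at 4 °C, then flow cytometry.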

[4] = target: T3, human CD40 on HEK293A/human CD40 cells; test: FACS on HEK293A/human CD40 cells; remark: listed apart in the source
Protocol: as §1
(§3) Following the protocols in Example 4 and Example 5, the bi- or multi-specific antibodies of the disclosure were tested for their binding capability to human PD-L1 and human CD40 proteins by FACS using the HEK293A cells prepared in Example 1 that stably expressed human PD-L1 or human CD40.

[5] = target: T2, monkey CD40 on HEK293A/monkey CD40 cells; test: FACS on HEK293A/monkey CD40 cells
Procedure, shortened: as §2

[6] = target: T4, human PD-L1 on HEK293A/human PD-L1 cells (human, UniProt Q9NZQ7 19-290); test: FACS on HEK293A/human PD-L1 cells
Protocol: as §1
(§4) Following the protocol of Example 4, the bispecific antibodies were tested for their binding capability to cell surface human, or monkey PD-L1 proteins by FACS, using the HEK293A cells prepared in Example 1 that stably expressed human or monkey […].

[7] = target: T4, human PD-L1 on HEK293A/human PD-L1 cells; test: FACS on HEK293A/human PD-L1 cells; remark: listed apart in the source
Protocol: as §1, §3

[8] = target: T4, human PD-L1 on HEK293A/human PD-L1 cells; test: FACS on HEK293A/human PD-L1 cells; remark: listed apart in the source
Protocol: as §1, §3

[9] = target: monkey PD-L1 on HEK293A/monkey PD-L1 cells (monkey, UniProt Q9NZQ7 19-290 (human entry)); test: FACS on HEK293A/monkey PD-L1 cells
Protocol: as §1, §4

human CD40-his protein = target: T5, human CD40-his protein (human, UniProt P25942 21-193); test: SPR (BIAcore 8K), human CD40-his coupled to CM5 chip, antibody injected
T5 construct: Bought protein; also called human CD40 protein; CD40 molecules; not shown: his tag
Text: (§5) Using BIAcore™ 8K instrument (GE Life Sciences, US), the binding affinity of the bi- or multi-specific antibodies to human CD40 and PD-L1 was quantitatively measured. Briefly, 100-200 response units (RU) of human CD40-his protein (Cat #:10774-1108H, Sino Biological, CN) or human PD-L1-his protein (Cat #:10084-H08H, Sino Biological, CN) were coupled to CM5 biosensor chips (Cat #:BR-1005-30, GE Life Sciences. USA). The un-reacted groups were then blocked with 1 M ethanolamine. Serially diluted antibodies at concentrations ranging from 0.3 μM to 10 μM were injected into the SPR running buffer (HBS-EP buffer, pH7.4, Cat #:BR-1006-69, GE Life Sciences, USA) at 30 μL/min. The binding affinity was calculated with the RUs of blank controls subtracted, and the association rate (kₐ) and dissociation rate (kd) were determined using the one-to-one Langmuir binding model (BIA Evaluation Software, GE Life Sciences, USA). The equilibrium dissociation constant KD was calculated as the kd/kₐ ratio.

human PD-L1-his protein = target: T6, human PD-L1-his protein (human, UniProt Q9NZQ7 19-238); test: SPR (BIAcore 8K), human PD-L1-his coupled to CM5 chip, antibody injected
T6 construct: extracellular domain; also called human PD-L1 (ECD)-his; human PD-L1 protein; not shown: his tag
Text: as §5

[10] = target: T4, human PD-L1 on HEK293A/human PD-L1 cells; test: FACS blocking assay on HEK293A/human PD-L1 cells; blocked ligand PD-1-Fc
Protocol: (§6) The bispecific antibodies were tested for their blocking activity on PD-1-PD-L1 binding by FACS using the HEK293A cells stably expressing human PD-L1 molecules as prepared in Example 1. Briefly, a 96-well plate was seeded with 10⁵ HEK293A/human PD-L1 cells in 100 μl cell culture medium, and then added with 50 μl serially diluted anti-PD-L1 antibody 56E5VH5VL4 or MBS307-3 molecules. After incubation at 4° C. for 1 h. the plate was washed with PBST for 3 times, added with 100 μl 200 μg/ml PD-1-Fc fusion proteins (Cat #:10377-10211, Sino Biological, CN), incubated at 4° C. for 1 h, washed with PBST for 3 times, and added with 1:500 diluted PE-goat anti-human IgG (Cat #:PAI-86078, Thermofisher, USA). After incubation at 4° C. for 1 h, the plate was washed with PBST for 3 times and measured for fluorescence using a FACS machine (BD).

[11] = target: T4, human PD-L1 on HEK293A/human PD-L1 cells; test: as above; remark: listed apart in the source
Protocol: as §6
(§7) Following the protocol of Example 7, the bi- or multi-specific antibodies were tested for their capability to block PD-1-PD-L1 binding by FACS, using the HEK293A cells prepared in Example 1 that stably expressed human PD-L1 molecules.

[12] = target: T3, human CD40 on HEK293A/human CD40 cells; test: cell-based or functional assay; remark: listed apart in the source
[13] = target: T4, human PD-L1 on HEK293A/human PD-L1 cells; test: FACS blocking assay on HEK293A/human PD-L1 cells; blocked ligand PD-1-Fc; remark: listed apart in the source
Protocol: as §6, §7

T4 sequence (Q9NZQ7 19-290 limits assumed): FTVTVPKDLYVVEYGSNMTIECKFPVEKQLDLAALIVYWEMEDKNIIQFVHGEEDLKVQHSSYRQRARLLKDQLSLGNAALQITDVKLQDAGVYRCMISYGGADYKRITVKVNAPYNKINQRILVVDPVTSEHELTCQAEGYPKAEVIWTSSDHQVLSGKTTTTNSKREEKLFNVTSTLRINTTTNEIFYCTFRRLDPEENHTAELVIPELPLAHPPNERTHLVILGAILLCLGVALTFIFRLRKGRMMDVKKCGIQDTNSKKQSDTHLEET
T6 sequence (Q9NZQ7 19-238): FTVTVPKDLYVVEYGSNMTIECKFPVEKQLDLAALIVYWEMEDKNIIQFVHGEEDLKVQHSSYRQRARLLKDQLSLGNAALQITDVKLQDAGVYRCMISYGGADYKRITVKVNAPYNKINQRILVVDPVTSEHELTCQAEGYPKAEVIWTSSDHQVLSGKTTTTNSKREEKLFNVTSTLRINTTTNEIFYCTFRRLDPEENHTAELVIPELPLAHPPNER
monkey PD-L1 on HEK293A/monkey PD-L1 cells, sequence (Q9NZQ7 other isoform, or with tags, fused parts or gaps limits assumed): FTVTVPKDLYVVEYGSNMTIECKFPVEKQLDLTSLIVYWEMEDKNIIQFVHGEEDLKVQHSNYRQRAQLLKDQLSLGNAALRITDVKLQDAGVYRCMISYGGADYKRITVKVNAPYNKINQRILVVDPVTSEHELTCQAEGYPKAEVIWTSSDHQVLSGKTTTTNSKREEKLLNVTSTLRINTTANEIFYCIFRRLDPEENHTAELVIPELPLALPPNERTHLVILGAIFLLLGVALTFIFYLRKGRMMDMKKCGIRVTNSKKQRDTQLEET

| Binder | EC50 (read off the curve); HEK-Blue/CD40 reporter, OD630, plate coated with human PD-L1-his [1] [µg/mL] | binding result [2] | EC50 (read off the curve) [3] [µg/mL] | EC50 (read off the curve) [4] [µg/mL] | EC50 (read off the curve) [5] [µg/mL] | EC50 (read off the curve) [6] [µg/mL] | EC50 (read off the curve) [7] [µg/mL] | EC50 (read off the curve) [8] [µg/mL] | EC50 (read off the curve) [9] [µg/mL] | Kd (human CD40-his protein) [nM] | Kd (human PD-L1-his protein) [nM] | IC50 (read off the curve) [10] [µg/mL] | IC50 (read off the curve) [11] [µg/mL] | EC50 (read off the curve); HEK-Blue/CD40 reporter, OD630, plate coated with human PD-L1-his [12] [µg/mL] | IC50 (read off the curve) [13] [µg/mL] |
| --- | --- | --- | --- | --- | --- | --- | --- | --- | --- | --- | --- | --- | --- | --- | --- |
| B1 | ~0.1 | no binding (tested: starting concentration at 40 µg/ml) | ~0.1 | ~0.1 | ~0.1 | ~0.1 | ~0.2 | ~0.1 | ~0.09 | 1.42 | 0.321 | ~0.1 | ~0.08 | – | – |
| B2 | – | – | – | – | – | – | – | – | – | 4.37 | 0.069 | – | – | ~0.01 | ~0.01 |
